The results in this text go back to patent US20240173398A1 (MAX PLANCK GESELLSCHAFT ZUR F RDERUNG DER WISSENSCHAFTEN E V, published 2024).

Sequences and labels used below:
B1: VHH antibody Re9C07 (VHH)
VHH: QVQLVESGGGLVQAGGSLRLSCAASGRTFSRYAMGWFRQAPGKEREFVAAITWNADTTYYADSVKGRFTISRDNAKNTVYLQMNSLKPEDTAVYYCAAGGNHYYSRSYYSSLEYDHWGQGTQVTVSS
B2: VHH antibody Re6A11 (VHH)
VHH: QVQLVESGGGLVQAGGSLRLSCAASGRTFSNDALGWFRQAPRKEREFVAAINWNSGTYYADSVKGRFTISRDNAKNTVYLQMNSLKPEDTAVYSCAAASDYGLPREDFLYDYWGQGTLVTVSS
B3: VHH antibody Re9F06 (VHH)
VHH: QVQLVESGGGLVQAGGSLRLSCAASGRTFSNDALGWFRQAPRKEREFVAAINWNSGTYYADSVKGRFTISRDNAKNTVYLQMNSLKPEDTAVYSCAAASDYGLPREDFLYDYWGQGTQVTVSS
B4: VHH antibody Re9D02 (VHH)
VHH: QVQLVESGGGLVQAGGSLRLSCAASGRTFSNYAMGWFRQAPGKEREFVAAISWGGDTTYYADSLKGRFTISRDNAKNTVYLQMNSLKPEDTAVYYCAADRGLSYYYDRVTEYDYWGQGTQVTVSS
B5: VHH antibody Re7E02 (VHH)
VHH: QVQLVESGGGLVQAGGSLRLSCAASGFTLDYYAIGWFRQAPGKEREGVSYIRSSDGTTYYADSVKGRFTISRDNAKNTVYLQMNSLKPEDTAVYYCAADEAYYSELGWESPWGWSYWGQGTQVTVSS
B6: VHH antibody Re6B07 (VHH)
VHH: QVQLVESGGGLVQPGGSLRLSCAASGFTLDYYAIGWFRQAPGKEREGVSYIRSSDGTTYYADSVKGRFTISRDNAKNTVYLQMNSLKPEDTAVYYCAADEAYYSELGWESPWGWSYWGQGTRVTVSS
B7: VHH antibody Re11H04 (VHH)
VHH: QVQLVESGGGLVQPGGSLRLSCAASGFTLDYYTIAWFRQAPGKEREGVSCISGNDGSTYYADSVKGRFTISRDNAKNTVYLQMNSLKPEDTAVYYCAADRGESYYPFRPSEYHYWGQGTQVTVSS
B8: VHH antibody Re9G12 (VHH)
VHH: QVQLVESGGGLVQAGGSLRLSCAASGRTFSSYVMGWFRQAPGKEREFVAHISWSGDSTYYADSVKGRFTIFRDNAKNTAYLQMNSLKPEDTAVYYCAADRGASYYYTWASEYNYWGQGTQVTVSS

The experiment has as its target SARS-CoV-2 RBD (correctly folded, co-expressed with fold-promoting VHH in E. coli) (SARS-CoV-2, UniProt P0DTC2 330-527). In words: co-expression in E. coli, co-purification and gel filtration. (In general: SEC sorts molecules by how far they enter the pores of the column.)
Consider B1, for which the binding result is “binds”.

On to B2, for which the binding result is “binds”.

With B3, the binding result is “binds”.

Take B4: the binding result was “binds”.

For the molecule B5, the binding result is given as “binds”.

In the case of B6, the binding result is given as “binds”.

Turning to B7, the binding result is recorded as “binds”.

On to B8, for which the binding result is given as “binds”.
